Reference: patent US20220089784A1 (University of California, published 2022)

Tests used:
[1] = target: T1, BoNT/F1 (proteolytic BoNT/F) (Clostridium botulinum, UniProt A7GBG3 1-1278); assay: yeast scFv FACS
T1 sequence: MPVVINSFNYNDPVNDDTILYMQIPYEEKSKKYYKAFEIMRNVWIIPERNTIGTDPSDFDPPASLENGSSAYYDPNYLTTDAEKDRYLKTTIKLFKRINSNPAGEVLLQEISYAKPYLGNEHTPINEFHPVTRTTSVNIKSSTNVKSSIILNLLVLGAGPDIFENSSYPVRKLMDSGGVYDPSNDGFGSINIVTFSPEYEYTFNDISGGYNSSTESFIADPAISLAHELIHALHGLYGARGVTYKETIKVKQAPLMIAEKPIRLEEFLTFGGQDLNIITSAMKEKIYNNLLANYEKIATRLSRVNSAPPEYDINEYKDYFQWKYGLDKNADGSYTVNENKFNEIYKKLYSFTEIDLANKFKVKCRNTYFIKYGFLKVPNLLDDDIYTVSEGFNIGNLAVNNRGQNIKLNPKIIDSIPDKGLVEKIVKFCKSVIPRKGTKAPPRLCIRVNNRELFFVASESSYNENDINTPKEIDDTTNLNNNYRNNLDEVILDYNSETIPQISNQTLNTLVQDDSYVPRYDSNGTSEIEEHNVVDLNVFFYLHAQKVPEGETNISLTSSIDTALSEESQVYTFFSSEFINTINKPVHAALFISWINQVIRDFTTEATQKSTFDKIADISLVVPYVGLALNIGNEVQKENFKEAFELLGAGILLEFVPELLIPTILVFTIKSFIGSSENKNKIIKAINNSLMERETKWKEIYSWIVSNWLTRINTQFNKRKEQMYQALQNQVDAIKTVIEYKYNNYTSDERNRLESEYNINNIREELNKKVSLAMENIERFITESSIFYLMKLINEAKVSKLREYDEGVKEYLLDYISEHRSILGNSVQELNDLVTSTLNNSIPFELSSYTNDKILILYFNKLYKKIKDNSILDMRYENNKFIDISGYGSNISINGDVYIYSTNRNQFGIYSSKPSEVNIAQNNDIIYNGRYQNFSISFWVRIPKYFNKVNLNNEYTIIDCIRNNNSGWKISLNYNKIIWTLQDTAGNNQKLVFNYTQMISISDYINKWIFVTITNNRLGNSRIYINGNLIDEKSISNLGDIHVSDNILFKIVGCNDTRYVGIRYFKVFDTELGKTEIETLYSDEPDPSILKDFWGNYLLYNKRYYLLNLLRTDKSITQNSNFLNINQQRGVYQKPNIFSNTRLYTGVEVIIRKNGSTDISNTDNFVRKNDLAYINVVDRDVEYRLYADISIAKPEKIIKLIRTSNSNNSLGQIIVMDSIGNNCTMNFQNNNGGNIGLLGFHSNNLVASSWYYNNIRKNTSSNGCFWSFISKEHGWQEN

BoNT/F 202F = target: T2, BoNT/F 202F (Clostridium botulinum, UniProt P30996 1-1274); assay: yeast scFv FACS
T2 sequence: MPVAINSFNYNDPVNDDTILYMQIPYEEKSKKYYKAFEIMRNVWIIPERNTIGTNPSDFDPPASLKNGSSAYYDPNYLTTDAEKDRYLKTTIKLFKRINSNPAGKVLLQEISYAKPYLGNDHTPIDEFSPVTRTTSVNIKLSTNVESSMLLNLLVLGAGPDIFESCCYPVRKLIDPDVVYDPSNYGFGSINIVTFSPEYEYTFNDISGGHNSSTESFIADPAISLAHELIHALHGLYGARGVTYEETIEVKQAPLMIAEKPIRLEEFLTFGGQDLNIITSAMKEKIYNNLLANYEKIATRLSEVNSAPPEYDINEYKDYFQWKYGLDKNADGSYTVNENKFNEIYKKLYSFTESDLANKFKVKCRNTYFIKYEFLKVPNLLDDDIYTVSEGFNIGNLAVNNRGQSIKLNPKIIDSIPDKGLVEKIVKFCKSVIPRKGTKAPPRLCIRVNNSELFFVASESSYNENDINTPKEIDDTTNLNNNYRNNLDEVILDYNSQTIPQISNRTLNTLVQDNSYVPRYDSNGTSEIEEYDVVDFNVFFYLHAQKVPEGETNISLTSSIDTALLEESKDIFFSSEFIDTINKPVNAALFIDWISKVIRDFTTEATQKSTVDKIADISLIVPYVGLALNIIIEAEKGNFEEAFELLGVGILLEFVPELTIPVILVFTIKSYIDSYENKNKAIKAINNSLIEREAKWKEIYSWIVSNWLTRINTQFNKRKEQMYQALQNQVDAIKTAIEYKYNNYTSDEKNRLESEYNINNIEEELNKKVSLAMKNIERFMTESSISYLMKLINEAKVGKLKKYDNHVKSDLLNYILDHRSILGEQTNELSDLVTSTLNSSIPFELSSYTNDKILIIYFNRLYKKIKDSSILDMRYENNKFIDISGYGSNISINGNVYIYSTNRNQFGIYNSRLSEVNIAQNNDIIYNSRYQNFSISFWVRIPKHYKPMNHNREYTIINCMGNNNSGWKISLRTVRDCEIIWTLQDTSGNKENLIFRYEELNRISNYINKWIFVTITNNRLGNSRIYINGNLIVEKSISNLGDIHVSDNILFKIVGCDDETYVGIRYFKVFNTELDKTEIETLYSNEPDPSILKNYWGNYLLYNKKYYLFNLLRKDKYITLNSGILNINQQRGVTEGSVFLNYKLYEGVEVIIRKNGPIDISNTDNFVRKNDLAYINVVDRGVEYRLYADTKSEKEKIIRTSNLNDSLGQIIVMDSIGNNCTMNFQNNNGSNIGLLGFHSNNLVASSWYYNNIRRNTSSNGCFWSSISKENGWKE

B1: 39H6 scFv (scFv, V domains shown)
VH: EVQLVPSGGNLVQPGGSLRLSCAATGPIGSHWMTWVRQAPGQGLEWVANINLDGTEKFYVDSVKGRFTVSRDNRKSSVFLQMNNLRVDDTAVYYCARLQWGGYNGWLSPWGQGTLVTVSS
VL: DIVMTQSPPSLSASVGDRVSLTCRASEYIGTSLNWYQQKPGKAPKLLIYAASALHSGVPSRFSGSGSGTDFTLTISGLQPEDFATYYCQQANDLPLTFGGGTKLEIK
[1]
  Kd: 0.526 nM
BoNT/F 202F
  binding result: binds

B2: 41E2 scFv (scFv, V domains shown)
VH: EVQLVPSGGNLVQPGGSLRLSCAATGPIGSHWMTWVRQAPGQGLEWVANINLDGTEKFYVDSVKGRFTVSRDNRKSSVFLQMNNLRVDDTAVYYCARLQWGGYNGWLSPWGQGTLVTVSS
VL: DIVMIQSPPSLSASVGDRVSLTCRASEYIGTSLNWYQQKPGKAPKLLIYAASALHSGVPSRFSGSGSGTDFTLTISGLQPEDFATYYCQQANDLPLTFGGGTKLEIK
[1]
  Kd: 0.584 nM
BoNT/F 202F
  binding result: binds

B3: 39A1 scFv (scFv, V domains shown)
VH: EVQQVQSGGNLVQPGGSLRLSCAATGPIGSHWMTWVRQAPGQGLEWVANINLDGTEKFYVDSVKGRFTVSRDNRKSSVFLQMNNLRVDDTAVYYCARLQWGGYNGWLSPWGQGTLVTVSS
VL: DIVMTQSPPSLSASVGDRVSLTCRASEYIGTSLNWYQQKPGKAPKLLIYAASALHSGVPSRFSGSGSGTDFTLTISGLQPEDFATYYCQQANDLPLTFGGGTKLEIK
[1]
  Kd: 0.588 nM
BoNT/F 202F
  binding result: binds

B4: 43D3 scFv (scFv, V domains shown)
VH: EVQQVQSGGNLVQPGGSLRLSCAATGPIGSHWMTWVRQAPGQGLEWVANINLDGTEKFYVDSVKGRFTVSRDNRKSSVFLQMNNLRVDDTAVYYCARLQWGGYNGWLSPWGQGTLVTVSS
VL: DIVMTQSPPSLSASVGDRVSLTCRASEYIGTSLNWYQQKPGKAPKLLIYAASALHSGVPSRFSGSGSGTDFTLTISGLQPEDFATYYCQQANDLPLTFGGGTKLENK
[1]
  Kd: 0.333 nM
BoNT/F 202F
  binding result: binds

B5: 39D5.1 scFv (scFv, V domains shown)
VH: EVQLVQSGGNLVQPGGSLRLSCAATGPIGSHWMTWVRQAPGQGLEWVASINLDGTEKFYVDSVKGRFTVSRDNRKSSVFLQMNNLRVDDTAVYYCARLQWGGYNGWLSPWGQGTLVTVSS
VL: DIVMTQSPPSLSASVGDRVSLTCRASEYIGTSLNWYQQKPGKAPKLLIYAASALHSGVPSRFSGSGSGTDFTLTISGLQPEDFATYYCQQANDLPLTFGGGTKLEIK
[1]
  Kd: 1.77 nM
BoNT/F 202F
  binding result: binds

B6: 41C2 scFv (scFv, V domains shown)
VH: EVQQVQSGGNLVQPGGSLRLSCAATGPIGSHWMTWVRQAPGQGLEWVANINLDGTEKFYVDSVKGRFTVSRDNRKSSVFLQMNNLRVDDTAVYYCARLQWGGYNGWLSPWGQGTLVTVSS
VL: DIVMTQSPPSLSASVGDRVSLTCRASEYIGTSLNWYQQKPGKAPKLLIYAASALHSGVPSRFSGSGSGTDFTLTISGLQPEDFATYYCQQTNDLPLTFGGGTKLEIK
[1]
  Kd: 0.355 nM
BoNT/F 202F
  binding result: binds

B7: 41F7 scFv (scFv, V domains shown)
VH: EVQLVPSGGNLVQPGGSLRLSCAATGPIGSHWMTWVRQAPGQGLEWVANINLDGTEKFYVDSVKGRFTVSRDNRKSSVFLQMNNLRVDDTAVYYCARLQWGGYNGWLSPWGQGTLVTVSS
VL: DILMTQSPPSLSASVGDRVSLTCRASEYIGTSLNWYQQKPGKAPKLLIYAASALHSGVPSRFSGSGSGTDFTLTISGLQPEDFATYYCQQANDLPLTFGGGTKLEIK
[1]
  Kd: 0.566 nM
BoNT/F 202F
  binding result: binds
